# According to paper PMC10368727, “Sequestration of histidine kinases by non-cognate response regulators establishes a threshold level of stimulation for bacterial two-component signaling” (Nature Communications, 2023):
# Like-named read-outs stand apart in the source and are kept apart here.
# T1: phosphorylated, histidine tag labeled HK KdpD (cytosolic catalytic domain) (M. tuberculosis, UniProt P9WGL3 532-860)
# T1 construct: also called KdpD~P
# T1 sequence: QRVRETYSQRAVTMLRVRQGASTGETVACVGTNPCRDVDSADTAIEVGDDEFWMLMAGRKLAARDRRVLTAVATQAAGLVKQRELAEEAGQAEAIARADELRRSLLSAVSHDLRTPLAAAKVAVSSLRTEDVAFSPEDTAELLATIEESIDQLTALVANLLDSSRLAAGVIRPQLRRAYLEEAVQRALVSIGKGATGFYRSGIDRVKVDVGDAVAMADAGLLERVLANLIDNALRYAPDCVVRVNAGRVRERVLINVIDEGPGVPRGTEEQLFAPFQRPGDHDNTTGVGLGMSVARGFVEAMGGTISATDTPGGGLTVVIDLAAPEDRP
# T2: phosphorylated, histidine tag labeled HK PrrB (cytosolic catalytic domain) (M. tuberculosis, UniProt P9WGK7 172-446)
# T2 construct: also called PrrB~P
# T2 sequence: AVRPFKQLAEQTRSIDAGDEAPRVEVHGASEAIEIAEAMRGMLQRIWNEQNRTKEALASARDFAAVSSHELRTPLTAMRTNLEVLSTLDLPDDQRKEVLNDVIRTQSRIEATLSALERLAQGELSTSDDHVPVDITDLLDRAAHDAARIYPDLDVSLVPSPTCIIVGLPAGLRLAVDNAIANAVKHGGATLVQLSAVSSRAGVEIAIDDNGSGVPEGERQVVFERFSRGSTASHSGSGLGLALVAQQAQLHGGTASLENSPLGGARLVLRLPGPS
# B1: response regulator MtrA (natural protein)
# chain: MDTMRQRILVVDDDASLAEMLTIVLRGEGFDTAVIGDGTQALTAVRELRPDLVLLDLMLPGMNGIDVCRVLRADSGVPIVMLTAKTDTVDVVLGLESGADDYIMKPFKPKELVARVRARLRRNDDEPAEMLSIADVEIDVPAHKVTRNGEQISLTPLEFDLLVALARKPRQVFTRDVLLEQVWGYRHPADTRLVNVHVQRLRAKVEKDPENPTVVLTVRGVGYKAGPP
# notes: also called cognate RR MtrA
# B2: GFP-tagged MtrB, unphosphorylated (cytosolic catalytic domain) (domain or fragment)
# chain: SRQVVVPVRSASRIAERFAEGHLSERMPVRGEDDMARLAVSFNDMAESLSRQIAQLEEFGNLQRRFTSDVSHELRTPLTTVRMAADLIYDHSADLDPTLRRSTELMVSELDRFETLLNDLLEISRHDAGVAELSVEAVDLRTTVNNALGNVGHLAEEAGIELLVDLPAEQVIAEVDARRVERILRNLIANAIDHAEHKPVRIRMAADEDTVAVTVRDYGVGLRPGEEKLVFSRFWRSDPSRVRRSGGTGLGLAISVEDARLHQGRLEAWGEPGEGACFRLTLPMVRGHKVTTSPLPMKPIPQPVLQPVAQPNPQPMPPEYKERQRPREHAEWSG
# notes: also called MtrB-GFP
# B3: response regulator TcrX (natural protein)
# chain: MRRADGQPVTVLVVDDEPVLAEMVSMALRYEGWNITTAGDGSSAIAAARRQRPDVVVLDVMLPDMSGLDVLHKLRSENPGLPVLLLTAKDAVEDRIAGLTAGGDDYVTKPFSIEEVVLRLRALLRRTGVTTVDSGAQLVVGDLVLDEDSHEVMRAGEPVSLTSTEFELLRFMMHNSKRVLSKAQILDRVWSYDFGGRSNIVELYISYLRKKIDNGREPMIHTLRGAGYVLKPAR
# B4: phosphorylated, GFP-tagged HK PhoR (cytosolic catalytic domain) (domain or fragment)
# chain: RRSLRPLAEFEQTAAAIGAGQLDRRVPQWHPRTEVGRLSLALNGMLAQIQRAVASAESSAEKARDSEDRMRQFITDASHELRTPLTTIRGFAELYRQGAARDVGMLLSRIESEASRMGLLVDDLLLLARLDAHRPLELCRVDLLALASDAAHDARAMDPKRRITLEVLDGPGTPEVLGDESRLRQVLRNLVANAIQHTPESADVTVRVGTEGDDAILEVADDGPGMSQEDALRVFERFYRADSSRARASGGTGLGLSIVDSLVAAHGGAVTVTTALGEGCCFRVSLPRVSDVDQLSLTPVVPGPP
# notes: also called PhoR-GFP; PhoR~P
# B5: response regulator NarL (natural protein)
# chain: MSNPQPEKVRVVVGDDHPLFREGVVRALSLSGSVNVVGEADDGAAALELIKAHLPDVALLDYRMPGMDGAQVAAAVRSYELPTRVLLISAHDEPAIVYQALQQGAAGFLLKDSTRTEIVKAVLDCAKGRDVVAPSLVGGLAGEIRQRAAPVAPVLSAREREVLNRIACGQSIPAIAAELYVAPSTVKTHVQRLYEKLGVSDRAAAVAEAMRQRLLD
# notes: also called non-cognate RR NarL
# B6: phosphorylated, histidine tag labeled HK DevS (cytosolic catalytic domain) (domain or fragment)
# chain: LATSQRRMRELDVLTDRDRIARDLHDHVIQRLFAIGLALQGAVPHERNPEVQQRLSDVVDDLQDVIQEIRTTIYDLHGASQGITRLRQRIDAAVAQFADSGLRTSVQFVGPLSVVDSALADQAEAVVREAVSNAVRHAKASTLTVRVKVDDDLCIEVTDNGRGLPDEFTGSGLTNLRQRAEQAGGEFTLASVPGASGTVLRWSAPLSQ
# notes: also called DevS~P
# B7: response regulator TcrA (natural protein)
# chain: MADETTMRAGRGPGRACGRVSGVRILVVEDEPKMTALLARALTEEGHTVDTVADGRHAVAAVDGGDYDAVVLDVMLPGIDGFEVCARLRRQRVWTPVLMLTARGAVTDRIAGLDGGADDYLTKPFNLDELFARLRALSRRGPIPRPPTLEAGDLRLDPSEHRVWRADTEIRLSHKEFTLLEALIRRPGIVHTRAQLLERCWDAAYEARSNIVDVYIRYLRDKIDRPFGVTSLETIRGAGYRLRKDGGRHALPR
# B8: response regulator KdpE (natural protein)
# chain: MTLVLVIDDEPQILRALRINLTVRGYQVITASTGAGALRAAAEHPPDVVILDLGLPDMSGIDVLGGLRGWLTAPVIVLSARTDSSDKVQALDAGADDYVTKPFGMDEFLARLRAAVRRNTAAAELEQPVIETDSFTVDLAGKKVIKDGAEVHLTPTEWGMLEMLARNRGKLVGRGELLKEVWGPAYATETHYLRVYLAQLRRKLEDDPSHPKHLLTESGMGYRFEA
# B9: response regulator MprA (natural protein)
# chain: MSVRILVVDDDRAVRESLRRSLSFNGYSVELAHDGVEALDMIASDRPDALVLDVMMPRLDGLEVCRQLRGTGDDLPILVLTARDSVSERVAGLDAGADDYLPKPFALEELLARMRALLRRTKPEDAAESMAMRFSDLTLDPVTREVNRGQRRISLTRTEFALLEMLIANPRRVLTRSRILEEVWGFDFPTSGNALEVYVGYLRRKTEADGEPRLIHTVRGVGYVLRETPP
# B10: response regulator PrrA (natural protein)
# chain: MDTGVTSPRVLVVDDDSDVLASLERGLRLSGFEVATAVDGAEALRSATENRPDAIVLDINMPVLDGVSVVTALRAMDNDVPVCVLSARSSVDDRVAGLEAGADDYLVKPFVLAELVARVKALLRRRGSTATSSSETITVGPLEVDIPGRRARVNGVDVDLTKREFDLLAVLAEHKTAVLSRAQLLELVWGYDFAADTNVVDVFIGYLRRKLEAGGGPRLLHTVRGVGFVLRMQ
# B11: phosphorylated, GFP-tagged HK MtrB (cytosolic catalytic domain) (domain or fragment)
# chain: B2 chain
# notes: also called MtrB~P; P~MtrB-GFP
# Legend:
# Settings in all cases: both partners purified
# [1] = molecular target: B11; assay: MST
# [2] = molecular target: B2; assay: MST; GFP-tagged MtrB in the unphosphorylated state titrated with RR
# response regulator PhoP [3] = molecular target: T3, response regulator PhoP (M. tuberculosis, UniProt P71814 1-247); assay: as above
# [4] = molecular target: B4
# response regulator PhoP [5] = molecular target: T3, response regulator PhoP
# [6] = molecular target: T1, phosphorylated, histidine tag labeled …; assay: MST
# response regulator NarL = molecular target: B5; assay: MST
# response regulator DevR = response regulator DevR (M. tuberculosis, UniProt P9WMF9 1-217); assay: MST
# response regulator DevR, sequence (P9WMF9 whole entry): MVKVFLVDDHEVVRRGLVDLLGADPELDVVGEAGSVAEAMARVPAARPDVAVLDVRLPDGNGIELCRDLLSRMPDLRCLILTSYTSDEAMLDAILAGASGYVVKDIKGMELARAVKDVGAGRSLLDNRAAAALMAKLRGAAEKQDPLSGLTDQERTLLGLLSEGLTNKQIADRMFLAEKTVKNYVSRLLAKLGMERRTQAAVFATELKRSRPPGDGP
# [7] = molecular target: T2, phosphorylated, histidine tag labeled …; assay: MST
binder,measurement,setting,value
B1,Kd,[1],444 ± 117 nM
same,Kd,[2],936 ± 113 nM
B2,Kd,response regulator PhoP [3],18100 ± 2740 nM
B3,Kd,[1],82 ± 12 nM
same,Kd,[2],21700 ± 5020 nM
same,Kd,[4],484 nM
B4,Kd,response regulator PhoP [5],1480 nM
B5,Kd,[1],83 ± 15 nM
same,Kd,[6],355 nM
same,Kd,[2],402 ± 58 nM
B6,Kd,response regulator NarL,325 nM
same,Kd,response regulator DevR,13200 nM
B7,Kd,[1],3070 ± 74 nM
same,Kd,[4],1830 nM
B8,Kd,[1],868 ± 100 nM
same,Kd,[6],4490 nM
B9,Kd,[7],1960 nM
B10,Kd,[7],4310 nM
B11,Kd,response regulator PhoP [5],3580 ± 121 nM
